The results in this text go back to patent publication US20140004122A1, “METHODS FOR TREATING OR PREVENTING CHOLESTEROL RELATED DISORDERS” (AMGEN INC., priority 2011, published 2014).

Experiment [1] concerns human patient exhibiting a risk of developing hypercholesterolemia. As to the kind of experiment: Prevention of hypercholesterolemia (Example 19). Type of experiment: in vivo. Particulars: regularly administered (e.g., one time weekly). An excerpt:
At periodic times during the treatment, the patient is monitored to determine whether serum cholesterol levels have decreased.

The test system of experiment [2] is hypercholesterolemic subjects unable to tolerate an effective dose of an HMG-CoA reductase inhibitor. As to the kind of experiment: 12 week study vs ezetimibe in statin-intolerant patients (Example 23). The conditions noted are these: preliminary. Type of experiment: in vivo, human. The protocol: It is planned to enroll 150 subjects. […] Randomization will be stratified by screening LDL-C level (<130 mg/dL [3.4 mmol/L] vs≧130 mg/dL) and statin use at baseline (yes vs no). Randomization should occur within 5-10 days of the screening LDL-C evaluation used to determine eligibility. Monoclonal antibody, 21B12, and placebo will be blinded. Ezetimibe is not blinded. Study visits are at weeks 2, 4, 8, and 12. […] The end-of-study visit and the last evaluation of lipids is at week 12.
Males and females, ≧18 to ≦75 years of age, are eligible for this study. Subject must have tried at least 1 statin and have been unable to tolerate any dose or an increase in statin dose above the following total weekly maximum doses due to myalgia or myopathy: atorvastatin ≦70 mg, simvastatin ≦140 mg, pravastatin ≦140 mg, rosuvastatin ≦35 mg, lovastatin ≦140 mg, fluvastatin ≦280 mg. For unlisted statins, the maximal total weekly dose should not exceed 7 times the smallest available tablet size. Symptoms must have resolved when statin was discontinued or the dose reduced. If receiving statin (not exceeding the maximal dose defined above), bile-acid sequestering resin, and/or stanol therapy, the dose(s) must be stable for at least 4 weeks prior to LDL-C screening. If the subject is on ezetimibe at start of screening, ezetimibe must be discontinued for ≧4 weeks before LDL-C screening. Depending on their risk category (based on NCEP ATP III treatment goals) subjects must meet the following fasting LDL-C (by central laboratory) criteria at screening: ≧100 mg/dL (2.6 mmol/L) for subjects with diagnosed coronary heart disease (CHD) or CHD risk equivalent; ≧130 mg/dL (3.4 mmol/L) for subjects without diagnosed CHD or risk equivalent and 2 or more risk factors; ≧160 mg/dL (4.1 mmol/L) for subjects without diagnosed CHD or risk equivalent and with 1 or no risk factors. Fasting triglycerides must be ≦400 mg/dL (4.5 mmol/L) as determined by the central laboratory analysis at screening.

Another experiment relates to LDLR in HepG2 cells. As to the kind of experiment: LDLR levels with statin and ABP in HepG2 cells (immunoblot). The format is cell-based, human. The conditions noted are these: HepG2 and HepG2-PCSK9 cells, with mevinolin, 48 hours. The protocol:
HepG2 cells were seeded in DMEM with 10% fetal bovine serum (FBS) and grown to ˜90% confluence. The cells were treated with indicated amounts of mevinolin (a statin, Sigma) and PCSK9 ABPs (FIGS. 12A-12C) in DMEM with 3% FBS for 48 hours. Total cell lysates were prepared. […] of total proteins were separated by gel electrophoresis and transferred to PVDF membrane. Immunoblots were performed using rabbit anti-human LDL receptor antibody (Fitzgerald) or rabbit anti-human b-actin antibody. The enhanced chemiluminescent results are shown in the top panels of FIGS. 12A-12C. The intensity of the bands were quantified by ImageJ software and normalized by b-actin. The relative levels of LDLR are shown in the lower panels of FIGS. 12A-12C.

In experiment [3] the target is D374Y PCSK9 binding to LDLR (Homo sapiens, UniProt Q8NBP7, D374Y). The experiment is described as follows: Large scale receptor ligand blocking screen and functional classification of ABPs. Particulars: functional assays of the screening. The protocol:
To screen for the antibodies that block PCSK9 binding to LDLR an assay was developed using the D374Y PCSK9 mutant. […] The following protocol was employed in the receptor ligand blocking screen: Costar 3702 medium binding 384 well plates (Corning Life Sciences) were employed in the screen. The plates were coated with goat anti-LDLR (R&D Cat #AF2148) at 2 μg/ml in 1×PBS/0.05% Azide at a volume of 40 μl/well. The plates were incubated at 4° C. overnight. The plates were then washed using a Titertek plate washer (Titertek, Huntsville, Ala.). A 3-cycle wash was performed. The plates were blocked with 90 μl of 1×PBS/1% milk and incubated approximately 30 minutes at room temperature. The plates were then washed using the Titertek plate washer. A 3-cycle wash was performed. The capture sample was LDLR (R&D, Cat #2148LD/CF), and was added at 0.4 μg/ml in 1×PBS/1% milk/10 mM Ca^2+ at a volume of 40 μl/well. The plates were then incubated for 1 hour and 10 minutes at room temperature. Contemporaneously, 20 ng/ml of biotinylated human D374Y PCSK9 was incubated with 15 micro liters of hybridoma exhaust supernatant in Nunc polypropylene plates and the exhaust supernatant concentration was diluted 1:5. The plates were then pre-incubated for about 1 hour and 30 minutes at room temperature. Next, the plates were washed using the Titertek plate washer operated using a 3-cycle wash. 50 μl/well of the pre-incubated mixture was transferred onto the LDLR coated ELISA plates and incubated for 1 hour at room temperature. To detect LDLR-bound b-PCSK9, 40 μl/well streptavidin HRP at 500 ng/ml in assay diluent was added to the plates. The plates were incubated for 1 hour at room temperature. The plates were again washed using a Titertek plate washer. A 3-cycle wash was performed. Finally, 40 μl/well of One-step TMB (Neogen, Lexington, Ky.) was added to the plate and was quenched with 40 μl/well of 1N hydrochloric acid after 30 minutes at room temperature. OD's were read immediately at 450 nm using a Titertek plate reader.
The receptor ligand assay was then repeated using the mutant enzyme on the 384 member subset of neutralizers identified in the first large scale receptor ligand inhibition assay. The same protocol was employed in the screen of the 384 member blocker subset assay as was done in the large scale receptor ligand blocking screen.
Limiting dilution was used to isolate a manageable number of clones from each line. […] The isolated clones were each expanded in 50-100 ml of hybridoma media and allowed to grow to exhaustion, (i.e., less than about 10% cell viability). The concentration and potency of the antibodies to PCSK9 in the supernatants of those cultures were determined by ELISA and by in vitro functional testing, as described herein.

Setting [4] is: 280 mg Q4W SC, end of the dosing interval.
[5] abbreviates: 350 mg Q4W SC, end of the dosing interval.

B1: 21B12: human anti-PCSK9 monoclonal antibody; light/heavy variable region SEQ ID NO 23/49 (antibody, listed as Homo sapiens, V domains shown)
VH: QVQLVQSGAEVKKPGASVKVSCKASGYTLTSYGISWVRQAPGQGLEWMGWVSFYNGNTNYAQKLQGRGTMTTDPSTSTAYMELRSLRSDDTAVYYCARGYGMDVWGQGTTVTVSS
VL: QSALTQPASVSGSPGQSITISCTGTSSDVGGYNSVSWYQQHPGKAPKLMIYEVSNRPSGVSNRFSGSKSGNTASLTISGLQAEDEADYYCNSYTSTSMVFGGGTKLTVL
With B1, the “serum cholesterol levels vs subjects that are not treated” value in experiment [1] is listed as “lowered serum cholesterol levels”. In addition, in experiment [2] (setting [4]), the “LS mean percent increase from baseline in HDL-C” value (from here on “LS mean percent increase”) worked out at 8.62%, the “LS mean percent reduction from baseline in LDL-C” value is on record as 38.79%, the “LS mean percent reduction from baseline in Lp(a)” value is 27.38% and the “LS mean percent reduction from baseline in VLDL-C” value was found to be 31.02%. Further, in experiment [2] (setting [4]), the “LS mean percent reduction from baseline in non-HDL-C” value was 39.92%, the “LS mean percent reduction from baseline in total cholesterol” value is reported as 31.03% and the “LS mean percent reduction from baseline in triglycerides” value was 15.35%. For the same molecule, in experiment [2] (setting [5]), the “LS mean percent increase” value stood at 4.62%, the “LS mean percent reduction from baseline in LDL-C” value was found to be 40.01%, the “LS mean percent reduction from baseline in Lp(a)” value was 16.04% and the “LS mean percent reduction from baseline in VLDL-C” value is 38.14%. In experiment [2] (setting [5]), the “LS mean percent reduction from baseline in non-HDL-C” value was 42.86%, the “LS mean percent reduction from baseline in total cholesterol” value came to 34.46% and the “LS mean percent reduction from baseline in triglycerides” value amounted to 19.22%. In experiment [2] (420 mg Q4W SC), the “LS mean percent increase” value is 7.55%, the “LS mean percent reduction from baseline in LDL-C” value turned out to be 50.63%, the “LS mean percent reduction from baseline in Lp(a)” value amounted to 23.84% and the “LS mean percent reduction from baseline in VLDL-C” value is on record as 37.27%. In addition, in experiment [2] (420 mg Q4W SC), the “LS mean percent reduction from baseline in non-HDL-C” value was 53.49%, the “LS mean percent reduction from baseline in total cholesterol” value is 42.23% and the “LS mean percent reduction from baseline in triglycerides” value amounted to 19.55%. Besides, in the experiment on LDLR in HepG2 cells, the “LDLR levels compared with the 25A7.1 ABP (a non-neutralizer)” value is given as “greater increase in LDLR levels”. Besides, the “neutralizing ability (blocking PCSK9/LDLR)” value in experiment [3] is “neutralizing”.
